Patent publication US20250215071A1, “Novel Mcl-1 inhibitor and combination of Mcl-1 and a BH3 mimetic, such as a Bcl-2 inhibitor” (NETRIS PHARMA, priority 2022, published 2025)

Assays:
EMT6 cells = test: EMT6 syngeneic breast tumor model, tumor growth and survival; type: in vivo, BALB/c mice; settings: NP137 20 mg/Kg loading then 10 mg/Kg i.v.; Venetoclax 5 mg/Kg oral gavage; vs isotypic control antibody
Experimental: FIG. 8. Combining netrin-1 interference and BH3 mimetics inhibits tumor growth in preclinical in vivo and ex vivo models. ((A,B,C): Combining netrin-1 interference and Bcl-2 inhibition restrains tumor growth in a syngeneic breast cancer model. EMT6 cells were engrafted in BALB/c mice and, once tumors reached a volume of 50 mm^3, treated with isotypic (Iso-mAb) or NP137 antibodies and the Bcl-2 inhibitor Venetoclax, as single agents or in combination. Tumor volumes were measured at the indicated days after the first treatment (n=9, ** p<0.01, ordinary two-way ANOVA with Tukey's multiple comparisons test) (A,B). Survival rate was assessed at sacrifice of mice with tumors more than 500 mm^3 (C). (D,E,F): Combined treatment is efficient to induce apoptosis in human ex vivo slices. Cleaved active caspase-3-positive cells were assessed by IHC staining in fresh ex vivo breast tumor tissue slices. […]
FIG. 9. […] 24 hours later, apoptosis was quantified by Annexin V/propidium iodide (PI) staining. EC50 values were calculated using nonlinear regression of Dose-response curves with GraphPad Prism software. […] Apoptosis was then evaluated by 5′,6,6′-tetrachloro-1,1′,3,3′-tetraethylbenzimi-dazolylcarbocyanine iodide (JC-1) dye staining, using NucleoCounter NC3000 (n=2, *p<0.05, ordinary two-way ANOVA with Tukey's multiple comparisons test). […]

[1] = human, in vivo; cited from earlier work

B1: NP137: humanized anti-netrin-1 monoclonal antibody, VH SEQ ID NO: 22, VL SEQ ID NO: 16, human IgG1 (antibody, V domains shown)
VH: QVQLQQSGPGLVKPSQTLSLTCAISGYTFTSYNMHWVRQATGQGLEWMGAIYPGNGDTSYNQKFKGRLTISKDTSKNQVVLTMTNMDPVDTATYYCARGGTGFAYWGQG
VL: DIQMTQSPSSLSASVGDRVTITCKASQSVSNDVAWYQQKPGQAPRLLIYYASNRYTGIPPRFSGSGYGTDFTLTINNIESEDAAYYFCQQDYSSPWTFGQG
modifications: human IgG1 constant region; humanized variant; MISC_FEATURE - CDR according to IGMT
For B1, the tumor growth (EMT6 cells) is given as “no effect on tumor growth” and the safety profile [1] is given as “extremely good safety profile”.
